Data from PMC5062937, “Aadh2p: an Arxula adeninivorans alcohol dehydrogenase involved in the first step of the 1-butanol degradation pathway” (Microbial Cell Factories, 2016).

Assays:
Test in all cases: purified protein
Type in all cases: biochemical, Blastobotrys adeninivorans
[1] = test system: T1, CC=O; conditions: reduction, 0.8 mM NADH, 50 mM sodium phosphate pH 7.5, 30 °C, pH 7.5
T1 construct: full length, N-terminal His6 tag (MHHHHHH then VPSPDI), expressed in A. adeninivorans G1212/YIC102-6H-AADH2, Ni-NTA purified; ORF 1068 bp, 356 residues printed; native 88 kDa, dimer

[2] = test system: T2, CCCC=O; conditions: reduction, 0.4 mM NADH, 50 mM sodium phosphate pH 7.5, 30 °C, pH 7.5
T2 construct: full length, N-terminal His6 tag (MHHHHHH then VPSPDI), expressed in A. adeninivorans G1212/YIC102-6H-AADH2, Ni-NTA purified; ORF 1068 bp, 356 residues printed; native 88 kDa, dimer

[3] = test system: T3, CCCCO; conditions: oxidation, 1 mM NAD+, 50 mM Tris-HCl pH 9.0, 30 °C, pH 9.0
T3 construct: full length, N-terminal His6 tag (MHHHHHH then VPSPDI), expressed in A. adeninivorans G1212/YIC102-6H-AADH2, Ni-NTA purified; ORF 1068 bp, 356 residues printed; native 88 kDa, dimer

[4] = test system: T4, NC(=O)C1=CN([C@@H]2O[C@H](COP(=O)(O)OP(=O)(O)OC[C@H]3O[C@@H](n4cnc5c(N)ncnc54)[C@H](O)[C@@H]3O)[C@@H](O)[C@H]2O)C=CC1; conditions: reduction, 20 mM acetaldehyde, 50 mM sodium phosphate pH 7.5, 30 °C, pH 7.5, varied: cofactor
T4 construct: full length, N-terminal His6 tag (MHHHHHH then VPSPDI), expressed in A. adeninivorans G1212/YIC102-6H-AADH2, Ni-NTA purified; ORF 1068 bp, 356 residues printed; native 88 kDa, dimer

[5] = test system: T5, NC(=O)c1ccc[n+]([C@@H]2O[C@H](COP(=O)(O)OP(=O)(O)OC[C@H]3O[C@@H](n4cnc5c(N)ncnc54)[C@H](O)[C@@H]3O)[C@@H](O)[C@H]2O)c1; conditions: oxidation, 100 mM ethanol, 50 mM Tris-HCl pH 9.0, 30 °C, pH 9.0, varied: cofactor
T5 construct: full length, N-terminal His6 tag (MHHHHHH then VPSPDI), expressed in A. adeninivorans G1212/YIC102-6H-AADH2, Ni-NTA purified; ORF 1068 bp, 356 residues printed; native 88 kDa, dimer

Question: What does the source list for 6h-Aadh2p (Blastobotrys adeninivorans)?
Answer: Km [1]: 26500 µM; kcat [1]: 15.2 s⁻¹; kcat/Km [1]: 600 M⁻¹ s⁻¹; Km [2]: 500 µM; kcat [2]: 11900 s⁻¹; kcat/Km [2]: 2.37e+07 M⁻¹ s⁻¹; Km [3]: 300 µM; kcat [3]: 1310 s⁻¹; kcat/Km [3]: 4.37e+06 M⁻¹ s⁻¹; Km [4]: 70 µM; kcat [4]: 14.7 s⁻¹; kcat/Km [4]: 224000 M⁻¹ s⁻¹; Km [5]: 500 µM; kcat [5]: 2.2 s⁻¹; kcat/Km [5]: 4000 M⁻¹ s⁻¹
